The record followed here is PMC2174359 (The Journal of Cell Biology, 2000).

For the experiment, the target named is Sec13/31p complex (S. cerevisiae, UniProt Q04491 1-297; P38968 1-1273). The experiment can be described thus: co-sedimentation.
Chain of Sec13/31p complex (Q04491 whole entry, chain 1 of 2): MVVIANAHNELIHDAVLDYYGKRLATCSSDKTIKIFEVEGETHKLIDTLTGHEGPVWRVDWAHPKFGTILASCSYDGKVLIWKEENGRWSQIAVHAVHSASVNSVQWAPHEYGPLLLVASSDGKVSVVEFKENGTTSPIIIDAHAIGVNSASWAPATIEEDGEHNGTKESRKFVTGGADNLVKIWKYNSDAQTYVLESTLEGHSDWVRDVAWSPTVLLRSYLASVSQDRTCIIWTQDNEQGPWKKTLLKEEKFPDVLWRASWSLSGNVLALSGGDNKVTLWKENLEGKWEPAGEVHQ
Chain of Sec13/31p complex (P38968 whole entry, chain 2 of 2): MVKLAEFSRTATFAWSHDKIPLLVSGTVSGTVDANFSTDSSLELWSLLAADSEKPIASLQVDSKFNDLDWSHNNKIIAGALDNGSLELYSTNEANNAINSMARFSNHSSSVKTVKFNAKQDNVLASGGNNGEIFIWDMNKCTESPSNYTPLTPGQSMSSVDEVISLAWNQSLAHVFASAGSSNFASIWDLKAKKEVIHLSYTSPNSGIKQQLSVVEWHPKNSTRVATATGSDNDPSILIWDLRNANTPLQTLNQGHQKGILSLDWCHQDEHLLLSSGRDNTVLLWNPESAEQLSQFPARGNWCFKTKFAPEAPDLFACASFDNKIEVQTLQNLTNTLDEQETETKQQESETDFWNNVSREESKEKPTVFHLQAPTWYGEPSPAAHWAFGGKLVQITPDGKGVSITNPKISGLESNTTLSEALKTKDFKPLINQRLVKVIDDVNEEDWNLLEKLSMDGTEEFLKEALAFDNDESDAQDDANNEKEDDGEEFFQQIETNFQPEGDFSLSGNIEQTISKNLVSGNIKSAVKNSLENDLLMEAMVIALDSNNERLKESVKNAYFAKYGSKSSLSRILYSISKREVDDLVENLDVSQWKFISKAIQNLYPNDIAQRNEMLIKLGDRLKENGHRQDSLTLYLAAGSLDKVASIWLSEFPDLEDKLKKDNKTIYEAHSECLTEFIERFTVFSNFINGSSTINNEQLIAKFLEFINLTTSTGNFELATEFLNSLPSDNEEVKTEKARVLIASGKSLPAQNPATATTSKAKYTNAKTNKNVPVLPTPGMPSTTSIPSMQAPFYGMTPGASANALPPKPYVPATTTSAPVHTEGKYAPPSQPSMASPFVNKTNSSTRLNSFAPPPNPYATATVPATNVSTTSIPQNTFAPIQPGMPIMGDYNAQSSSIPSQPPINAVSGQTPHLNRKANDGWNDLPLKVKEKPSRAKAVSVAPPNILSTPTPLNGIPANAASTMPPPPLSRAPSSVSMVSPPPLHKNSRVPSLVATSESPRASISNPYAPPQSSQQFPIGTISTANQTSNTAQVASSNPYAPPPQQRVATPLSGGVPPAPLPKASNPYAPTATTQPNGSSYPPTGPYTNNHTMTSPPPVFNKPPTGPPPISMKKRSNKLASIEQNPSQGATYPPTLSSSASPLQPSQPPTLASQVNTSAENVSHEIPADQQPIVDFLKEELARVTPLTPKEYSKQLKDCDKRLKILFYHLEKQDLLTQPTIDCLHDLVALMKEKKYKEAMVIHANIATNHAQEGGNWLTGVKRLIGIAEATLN

B1: Lst1p, His6-tagged (LST1-His6) (natural protein, S. cerevisiae, UniProt P38810 1-929, looked up)
chain: MSQQNILAASVSALSLDESTVHTGGASSKKSRRPHRAYHNFSSGTVPTLGNSPYTTPQLNQQDGFQQPQAFTPKQFGGFNNGSGSVMSTPVMVSQERFGASEASSPYGQSMLDMTAPQPTSHIVPTQRFEDQAQYLQRSFETCRDSVPPLPTTQFYCVDQGSCDPHLMSLSMYNIPESEHLRAATKLPLGLTIQPFSTLTPNDAEVPTIPLPMDGTPLRCRRCRAYANPKFQFTYDSSVICNICRVKMQVPGEHFAPMGPNGQRSDLNEKSELLHGTVDFLVPSIYNAIQEKELLPLHYVFLIDVSLLANENGSSLAMVEGVRSCIEYISDFQPNCEVAIIVYDNKLRFFNLRPDLDNAQEYIVSELDDVFLPFYNGLFVKPGNSMKIINDTLIKISGYISTDKYSHVPQVCYGSALQAAKLALDTVTGGQGGKIICSLNSLPTIGNGNLSLKRDNAHIAHVKCDNGFYKKLASDFLKSYISLDLYVTNAGFIDMATVGHPVEMTSGILKYYPHFQQETDAFTLVNDMVTNVSNIVGYQALLKVRCSTGLSVEQYYCDSSDNTDHDPIIPVLTRDTTLDVLLKYDSKIKTGTDVHFQTALLYTDIDGVRKVRSINTSGAVSNNIREIFKFINQNPVMRIMIKDVIKTLGDCDFVKIRRLIDDKMVEILTQYRGLVSSNSSTQLILPDSIKTLPAYMLAFEKSELMKPNAQSTRGNERIYDLLKYDSLNSAQLCYKLYPQIVPFHVLLEETDLTFYDANDKLLQINSSSINNLSVRASHSNFINGGCYLIFQGDTIYLWFNENTNRMLLQDLLSVDESLPVSQISLFSGTLPETGTSINQKASNVIKNWQQVVNKSSLPLVLLRPNVDQYYSNVMSQLLCEDKTVNRIESYDNYLVIMHKKIQEKLQKDDFIKVSTAATHENIHQKFVQF
As to B1, the binding result is “binds”.
